The target in experiment [1] is TRIMCypA from Macaca mulatta (Macaca mulatta).
The target of experiment [2] is TRIMCypA from Macaca fascicularis (Macaca fascicularis).
For experiment [3], the target named is owl monkey TRIMCypA fusion protein (owl monkey (Aotus sp.)).

Consider HIV-2ROD capsid (CA) (natural protein), for which the restriction of infection: ratio of infection titers on CHO cells stably expressing mamu-TRIMCypA over control CHO cells (infectivity ratio) in experiment [1] is < 0.2. As for SIVgsn capsid (CA) (natural protein), the restriction of infection: ratio of infection titers on CHO cells stably expressing mafa-TRIMCypA over control CHO cells (infectivity ratio) in experiment [2] is < 0.4. Regarding SIVmnd1 capsid (CA) (natural protein), the restriction of infection: ratio of infection titers on CHO cells stably expressing mafa-TRIMCypA over control CHO cells (infectivity ratio) in experiment [2] is < 0.4. The restriction of infection: ratio of infected cells in CHO cells stably expressing owl-TRIMCypA over control CHO cells (infectivity ratio) in experiment [3] was < 0.4.

These data come from paper PMC3751554.
